Experimental data taken from patent publication US12077576 (TRUSTEES OF TUFTS COLLEGE, dated 2024).

Assays:
[1] = molecular target: T1, Clostridium difficile toxin B (TcdB) (Clostridium difficile, UniProt P18177 2-2366); assay: ELISA, VHH dilution series on plate-coated rTcdB, anti-E-tag-HRP detection
T1 construct: also called rTcdB; TedB

[2] = molecular target: T1, Clostridium difficile toxin B (TcdB); assay: cell-based or functional assay
[3] = molecular target: T1, Clostridium difficile toxin B (TcdB); assay: cell-based or functional assay; remark: listed apart in the source

T1 sequence (P18177 2-2366): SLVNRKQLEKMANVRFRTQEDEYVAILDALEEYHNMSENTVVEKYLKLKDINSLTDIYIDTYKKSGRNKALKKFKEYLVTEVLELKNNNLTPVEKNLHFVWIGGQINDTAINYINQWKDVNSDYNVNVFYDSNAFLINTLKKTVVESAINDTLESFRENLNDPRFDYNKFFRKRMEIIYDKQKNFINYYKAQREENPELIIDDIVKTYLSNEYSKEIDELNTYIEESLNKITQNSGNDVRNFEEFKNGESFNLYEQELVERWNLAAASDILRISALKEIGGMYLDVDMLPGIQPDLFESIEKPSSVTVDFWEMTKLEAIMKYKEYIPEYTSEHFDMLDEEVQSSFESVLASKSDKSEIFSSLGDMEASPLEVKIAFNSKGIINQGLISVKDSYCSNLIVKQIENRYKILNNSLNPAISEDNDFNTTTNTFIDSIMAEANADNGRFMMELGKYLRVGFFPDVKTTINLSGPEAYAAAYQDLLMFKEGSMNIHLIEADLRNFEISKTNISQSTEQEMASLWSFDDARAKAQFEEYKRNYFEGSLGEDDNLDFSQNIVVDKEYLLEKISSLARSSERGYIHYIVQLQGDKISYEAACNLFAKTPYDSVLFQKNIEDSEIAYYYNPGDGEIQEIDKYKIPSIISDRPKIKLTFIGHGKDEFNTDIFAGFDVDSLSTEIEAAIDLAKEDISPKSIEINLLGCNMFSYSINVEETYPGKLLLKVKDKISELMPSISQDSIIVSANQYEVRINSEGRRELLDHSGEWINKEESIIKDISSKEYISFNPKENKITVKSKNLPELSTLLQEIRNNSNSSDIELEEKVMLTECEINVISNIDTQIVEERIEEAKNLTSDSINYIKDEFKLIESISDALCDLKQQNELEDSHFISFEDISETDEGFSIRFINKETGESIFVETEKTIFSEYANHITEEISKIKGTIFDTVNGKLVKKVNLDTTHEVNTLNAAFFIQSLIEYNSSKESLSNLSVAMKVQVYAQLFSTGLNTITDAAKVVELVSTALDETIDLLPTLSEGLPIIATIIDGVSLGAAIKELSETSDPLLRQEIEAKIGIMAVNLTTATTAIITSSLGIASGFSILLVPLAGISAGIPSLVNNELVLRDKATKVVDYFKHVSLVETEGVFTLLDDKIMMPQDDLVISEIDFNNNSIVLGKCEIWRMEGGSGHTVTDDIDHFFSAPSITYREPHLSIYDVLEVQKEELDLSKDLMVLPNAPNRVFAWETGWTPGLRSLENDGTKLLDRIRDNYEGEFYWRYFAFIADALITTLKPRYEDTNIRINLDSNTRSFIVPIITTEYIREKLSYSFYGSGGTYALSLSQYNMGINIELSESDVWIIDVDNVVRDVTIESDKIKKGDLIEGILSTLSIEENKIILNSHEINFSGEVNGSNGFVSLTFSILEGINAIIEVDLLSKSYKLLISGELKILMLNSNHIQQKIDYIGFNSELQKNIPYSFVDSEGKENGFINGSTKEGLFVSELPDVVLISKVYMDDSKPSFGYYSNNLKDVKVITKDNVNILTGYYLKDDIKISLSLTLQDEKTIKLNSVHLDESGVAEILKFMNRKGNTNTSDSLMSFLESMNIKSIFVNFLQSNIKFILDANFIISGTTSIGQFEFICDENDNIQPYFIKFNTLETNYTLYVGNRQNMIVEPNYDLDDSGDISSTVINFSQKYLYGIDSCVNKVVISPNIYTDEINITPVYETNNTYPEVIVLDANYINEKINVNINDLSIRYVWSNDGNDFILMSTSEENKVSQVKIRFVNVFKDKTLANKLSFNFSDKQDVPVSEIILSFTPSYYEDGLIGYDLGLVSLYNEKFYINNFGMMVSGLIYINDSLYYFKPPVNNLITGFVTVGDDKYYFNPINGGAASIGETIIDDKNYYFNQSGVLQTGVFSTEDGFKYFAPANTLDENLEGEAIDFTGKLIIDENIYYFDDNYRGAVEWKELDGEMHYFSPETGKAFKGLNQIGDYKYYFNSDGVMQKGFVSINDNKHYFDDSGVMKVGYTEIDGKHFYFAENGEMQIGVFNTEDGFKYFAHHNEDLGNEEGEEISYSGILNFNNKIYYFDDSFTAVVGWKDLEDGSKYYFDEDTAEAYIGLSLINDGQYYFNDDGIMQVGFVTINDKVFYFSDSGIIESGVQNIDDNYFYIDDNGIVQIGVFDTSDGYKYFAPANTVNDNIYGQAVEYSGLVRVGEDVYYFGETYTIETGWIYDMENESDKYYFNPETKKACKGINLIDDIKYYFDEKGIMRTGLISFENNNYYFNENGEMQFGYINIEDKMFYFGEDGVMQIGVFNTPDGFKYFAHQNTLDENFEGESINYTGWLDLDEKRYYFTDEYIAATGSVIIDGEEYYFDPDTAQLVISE

B1: JZT-F7 (XAG-1) anti-TcdB VHH (VHH)
VHH: QVQLVETGGGLVQAGGSLRLSCAASGSILSSMGWYRQAPGNQREFVASISRTGATDYADSVAGRFIISRDRGKNTVLALQMDSLKPEDTAVYYCNAGLGMGDPRRPGPWWGQGTQVTVSS
[1]
  EC50: 3 nM
[2]
  Apparent potency, (IC50); TcdB neutralization, Vero cell rounding assay: 1 nM

B2: JZS-E4 (XAF-10) anti-TcdB VHH (VHH)
VHH: QVQLVESGGGLAQAGGSLRLSCAASGSSFSMNVMGWYRQPPGKQRELVATIRSDGITNYAESVKGRFTISRDNVKNTVHLEMNRLKAEDTAVYYCFHGRARTGNNADLGSWGQGTQVTVSS
notes: also called JZX-E4
[1]
  EC50: 2 nM
[2]
  Apparent potency, (IC50); TcdB neutralization, Vero cell rounding assay: 1 nM
[3]
  IC50 TcdB-neutralization potency (FIG. 1), Vero cell rounding assay: ~0.5 nM

B3: JZS-H4 (XAF-13) anti-TcdB VHH (VHH)
VHH: QLQLVESGGGLVQPGGSLRLSCVASGFNFSVQIMSWVRQAPGKGLEWVSAISTGGASKSYADFAKGRFTISRDNAKNTLYLQMNSLQLEDTAVYFCSKGPRTWINSSPRGQGTQVTVSS
[1]
  EC50: 0.2 nM
[2]
  Apparent potency, (IC50); TcdB neutralization, Vero cell rounding assay: 0.5 nM

B4: JZT-G9 (XAG-7) anti-TcdB VHH (VHH)
VHH: QVQLAETGGGLVQAGGSLRLSCVSSERNPGINAMGWYRQAPGSQRELVAVWQTGGSLSYADSVKGRFTISRDNLKNTVYLQMNSLKPEDAAVYYCYLKKWRDQYWGQGTRVTVSS
[1]
  EC50: 0.1 nM
[2]
  Apparent potency, (IC50); TcdB neutralization, Vero cell rounding assay: 3 nM

B5: JZS-B2 (XAF-4) anti-TcdB VHH (VHH)
VHH: QVQLAESGGGLVQAGGSLRLSCVGSGTSFPRNYMGWYRQAPGKQRELVAAISHDGNVEYADSVKGRFTISRGNFVNTVALQMNSLKSEDTAVYYCKLVTLRRDEYWGQGTQVTVSS
[1]
  EC50: 0.3 nM
[2]
  Apparent potency, (IC50); TcdB neutralization, Vero cell rounding assay: > 125 nM

B6: JZS-C2 (XAF-6) anti-TcdB VHH (VHH)
VHH: QVQLAESGGGLVQPGGSLRLSCAASGFTSNSYYIGWFRQAPGKGREAVSSISSSGGSPNYANAVKGRFTITRDNANNTVYLQMDNLKPEDTAVYYCAASKFPLTTMASNRYHYWGQGTQVTVSS
[1]
  EC50: 3 nM
[2]
  Apparent potency, (IC50); TcdB neutralization, Vero cell rounding assay: 0.5 nM

B7: JZS-H9 (XAF-14) anti-TcdB VHH (VHH)
VHH: QVQLVESGGGLVQPGGSLTINCTVSGTAFSLDTMTWYRQAPGKQRELAADISSSGASNYLASVKGRFTISRDNAKSALYLQMNSLKPEDTGTYYCYRGRVRGVWPLDSGMMYWGKGTLVTVSS
notes: also called JZX-H9
[1]
  EC50: 1 nM
[2]
  Apparent potency, (IC50); TcdB neutralization, Vero cell rounding assay: 15 nM

B8: JZS-F6 (XAF-12) anti-TcdB VHH (VHH)
VHH: QLQLAESGGGLVQPGGSLRLSCAASGITFSNVAMSWVRQAPGKGLEWVSTISTGGSSTSYLDSVKSRFTISRDNAKKTVYLQMNSLKPEDTAVYYCVKGPKYSATIRRPEGQGTQVTVSS
[1]
  EC50: 0.1 nM
[2]
  Apparent potency, (IC50); TcdB neutralization, Vero cell rounding assay: 0.5 nM

B9: JZS-E6 (XAF-11) anti-TcdB VHH (VHH)
VHH: QVQLAETGGGLVQAGGSLRLSCAASGRLSERIFMISTMAWYRQVPGKQRELVAEISRLGRANYSDSVTDRFIISRDNTKNTVDLQMNSLKPEDTAVYYCNLKPFVDNYRGPGTQVTVSS
[1]
  EC50: 0.8 nM
[2]
  Apparent potency, (IC50); TcdB neutralization, Vero cell rounding assay: 1 nM

B10: JZS-A2a (XAF-1) anti-TcdB VHH (VHH)
VHH: QVQLAESGGGLVQAGGSLRLSCAASGSVYTFMGWYRQAPGKTRELVAGISGGTITKYADSVKGRFIISRDSPKNTIYLQMNELKVEDTGVYYCNAGDTIAQAMGTRRFPFDRWGQGTQVTVAS
[1]
  EC50: > 25 nM
[2]
  Apparent potency, (IC50); TcdB neutralization, Vero cell rounding assay: > 25 nM

B11: JZS-B9 (XAF-5) anti-TcdB VHH (VHH)
VHH: QLQLVESGGGLVQPGGSLRLSCTSARFSLINYAIGWFRQAPGQKREGVSLLTSGGATYYADSARDRFTISRDNARNTVYLQMNSLKPEDTAVYSCAAGPYSRTLVSRWKVGDGMEYWGKGTLVTVSS
[1]
  EC50: 0.2 nM
[2]
  Apparent potency, (IC50); TcdB neutralization, Vero cell rounding assay: 1 nM

B12: JZS-C10 (XAF-9) anti-TcdB VHH (VHH)
VHH: QLQLVETGGLVQAGGSLRLSCVGSGRGPGINVMGWYRQAPGTERELVATWQTGGTTNYADSVKGRFTISRDNLKNTVSLQMDSLKPEDTAVYYCYLKKWRDEYWGQGTQVTVSS
[1]
  EC50: 0.1 nM
[2]
  Apparent potency, (IC50); TcdB neutralization, Vero cell rounding assay: 0.5 nM
